Measurements from the supplement of paper PMC9170038.

Tested on: MS2 coat protein
Assay: apparent KD of MS2 coat protein; designed switch direction (-1 OFF switch, 1 ON switch): -1; higher = weaker reporter binding
Summary of the method: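 SNAP-549-labelled MS2 coat protein was titrated, doubling from 0.7 or 1.5 nM to 3 µM, over designed RNA switches transcribed on Illumina chips by stalled E. coli RNA polymerase. Runs were done without input, with 200 uM small-molecule ligand, or with an oligonucleotide input. Apparent KD is the per-design median over clusters of curve-fitted normalised fluorescence.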

[1] = input ligand: microRNA oligo, concentration not stated
[2] = Eterna round: R95, input ligand: microRNA oligo, concentration not stated

Sequence | apparent KD of MS2 coat protein (input ligand: FMN 200 uM) [nM] | apparent KD of MS2 coat protein (input ligand: none) [nM] | apparent KD of MS2 coat protein [1] [nM] | apparent KD of MS2 coat protein [2] [nM] | further results
GAGUAGAGAGGAUAUGCAAUGAUCAUCGUACGAUGAGGCUGACAUGAGGAUCACCCAUGUAGAAGGCUCUGGUC [EX2 #20] (Eterna round: R97, puzzle: Exclusion 2) | 22.5 | 23.3 |  |  | 
AAAUUAGCAAGUAGGUCCGACAUGAGGAUCACCCAUGUAAUCUAAUAUUACGCUGCAUGAGAGUGCGCUCGUCUUAA [Sensor-V1 #18] (Eterna round: R97, puzzle: Sensor, turn-off variant 1) | 196 | 220 |  |  | 
UAAGAAUACUGAGGAUAUGCUAGUUUAUCUCAAGCAGAAGGCGGACUCAACAUGAGGAUCACCCAUGUAAGACGGGUACUAGAU [Ex NG1 #13] (Eterna round: R96, puzzle: Exclusion NG 1) | 319 | 832 | 59 |  | 
GCCGUUAAGGUAGGAUAUGCUCGGUCUGUGCGUGCAGAAGGGCUGGUCGGCGACUUGAGGAUCACCCAAGUGGUCUUAUAGAAA [Mutated MS2 EX1.21] (Eterna round: R96, puzzle: Exclusion NG 1) | 121 | 64.8 | 142 |  | 
AAUAACAGAGGAUAUACUAUUUUAUGUGUUUGUUAUUUUAAACAUGAGGAUCACCCAUGUAGAAGGCUGAAUAA [JMF 14] (puzzle: Exclusion 2) |  |  |  | 19.1 | 
UAAGAGUAUGUUAGGAUAUGCUGGUCCUUGGAUCAGCAGAAGGAACAUGAGGAUCACCCAUGUAGAAUCUUUUA [Mod of JL 17 - Jieux - Brourd's mod of Exclusion 4] (Eterna round: R97, puzzle: Brourd's mod of Exclusion 4) | 74.8 | 21.3 |  |  | 
UCGUUCCGUGUAGGAUAUUGGCCUUCCUUGGGCCGAGAAGGACAUGAGGAUCACCCAUGUAUGUUAUUAUCGCGCGUGGCGCAU [Design 87] (Eterna round: R96, puzzle: Exclusion NG 1) | 97.1 | 18.6 | 13.3 |  | 
CUUCGUGUCAAGGAUAUACAGCAACUAUCCGGAGUAGAAGGUGGCACUUGAGGAUCACCCAAGUGCGUGGGUGU [Uszaqubi] (Eterna round: R97, puzzle: Exclusion 6) | 33.5 | 25.7 |  |  | 
CUUCGUAUAGAGGAUAUAGGAUACUUCGGUGUCCUAGAAGGCUGUACAUGAGGAUCACCCAUGUACUUCAGAUC [Exclusion 6 - B - 14:b] (puzzle: Exclusion 6) |  |  |  | 11.9 | 
ACGCAUUGCCUUUGGUAGUGCGUAACAUGAGGAUCACCCAUGUAGGAUAUGGUAGGCUUUGCUUACCAGAAGGACAUUGUUGAU [Omei mod of JL ENG3 1.03] (Eterna round: R96, puzzle: Exclusion NG 3) | 220 | 130 | 107 |  | 
CUAGCUAUUGUAGGAUAUCGAUGUGUUUCACAUCGAGAAGGACAUGAGGAUCACCCAUGUGAAGGAUCGUGAGAUCCAAGCUAG [JL ENG1 3.77] (Eterna round: R96, puzzle: Exclusion NG 1) | 128 | 24.1 | 25.1 |  | 
UAUUAGCAAGUAAGAUCCCACAUGAGGAUCACCCAUGUGCUCGUCUUAUAAGGUACUGUGACGAAAGUCACGGUACC [Sensor 3, v1 - 95 v1] (Eterna round: R97, puzzle: Sensor, turn-off variant 1) | 18.3 | 19.2 |  |  | 
AAUAACAGAGGAUAUACUAUUUUAUGUGUUUGUUAUUUUGAACAUGAGGAUCACCCAUGUAGAAGGCUGAUUAA [JMF 49] (Eterna round: R96, puzzle: Exclusion 2) | 45.6 | 44.1 | 35.2 |  | 
AGUAACAGAGGAUAUACUAUUUUAUGUGUUUGUUGUUUUAAACAUGAGGAUCACCCAUGUAGAAGGCUGAAUAA [JMF 88] (puzzle: Exclusion 2) |  |  |  | 19 | 
UAUAUAUAGUAAGGAUAUGUAUUUAUUUGAUAAACAGAAGGUACUGACAUGAGGAUCACCCAUGUUUUAGUGUGGGCAUGUAGA [JMF's solution 20] (Eterna round: R96, puzzle: Exclusion NG 1) |  |  | 69.9 |  | 
AAAAAAUAAAAAACAAGCUACAUGAGGAUCACCCAUGUUACAAAAAUAAAAUAAAAAUAAAAUAAAAGUAAAAUGGG [Sensor V2: 75 Random] (Eterna round: R96, puzzle: Sensor v2, turn-off variant) | 145 | 98.8 | 78.2 |  | 
GGCGAGGGAGGAUAUACGUGAUUGAUGCCGGGAACCCAGAGACAUGAGGAUCACCCAUGUAGAAGGCCCGGCUA [EX2 B.4] (Eterna round: R97, puzzle: Exclusion 2) | 10.9 | 14.5 |  |  | 
GCGGCUGACGUCAGGAUAUCCGUACCGUAUGGGUGGGAGAAGGGACAUGAGGAUCACCCAUGUUAAUCUAUUAA [Eternabot (L1) Solution 45] (Eterna round: R97, puzzle: Brourd's mod of Exclusion 4) | 62.7 | 58.4 |  |  | 

Sequence | apparent KD of MS2 coat protein (input ligand: FMN 200 uM) [nM] | apparent KD of MS2 coat protein (input ligand: none) [nM] | apparent KD of MS2 coat protein [1] [nM] | apparent KD of MS2 coat protein [2] [nM] | further results
UGAACCCAUGUUAGGAUAUCAGGCCGAGGAAGUUCUGAGAAGGGACAUGAGGAUCACCCAUGUAUAAAAGAAAC [Veontiinge] (Eterna round: R96, puzzle: Brourd's mod of Exclusion 4) | 44.1 | 51.7 | 44.6 |  | 
UUAUAUAGGUAGGAUAUCGAUUUUAAUUAAUUUCGAGAAGGGUCAACAUGAGGAUCACCCAUGUCAGCAUGUAU [LRO-Excl6-05-Rocketman] (Eterna round: R97, puzzle: Exclusion 6) | 45.6 | 51.4 |  |  | 
CCCAGGUCAUCUCCCGGGAACAACAUGAGGAUCACCCAUGUCUAGGAUAUCCACCAGUCAAUAAAGGAGAAGGAGACGGUGGUU [Edatarte] (Eterna round: R96, puzzle: Exclusion NG 3) |  |  | 20.2 |  | 
UUCUAACGAGGAUAUCGAUGGUGGAACAUGAGGAUCACCCAUGUAUGAGAUAUUGUAGUUCGAGAAGGCGUUCAGU [JR_E5_Sub057] (puzzle: Exclusion 5) |  |  |  | 36.6 | 
ACGUUUUUUGAGGAUAUGCGACGUUUUUUCGUCGUAGAAGGCGAUACAUGAGGAUCACCCAUGUUUAUGGGCAU [LRO-Ex6-18] (puzzle: Exclusion 6) |  |  |  | 129 | 
UAAUAACAAGCGAGAUCCUACAUGAGGAUCACCCAUGUGCUCGUCUUAUAAGGUACUGUGACGAAAGUCACGGUACC [Eli 87 + Mat D67] (Eterna round: R97, puzzle: Sensor, turn-off variant 1) | 17.9 | 20.1 |  |  | 
GCAUCCAAUGUGAGGAUAUACCUCUGGAUACAGAGGUAGAAGGCACAUGAGGAUCACCCAUGUUACUAGGAUGC [Fiskers BMX 4 - 36] (puzzle: Brourd's mod of Exclusion 4) |  |  |  | 19.3 | 
UUAAUGUGAGGAUAUCAGGUGUGCUAGCGUACUGGUACAUCUGAGAAGGCACAUGAGGAUCACCCAUGUUCCUG [JL-ex4-3.28 Brourd mod] (puzzle: Exclusion 4) |  |  |  | 20.6 | 
CUAAUGUAUCAGGAUAUGAUUAUAUGUGUUGGAUCAGAAGGGAUAACAUGAGGAUCACCCAUGUUGUGGAGUGA [JR_Ex6_Sub036] (Eterna round: R97, puzzle: Exclusion 6) | 202 | 234 |  |  | 
AUUAUGUAAGGAUAUCUUACAUGUGACUUCGGUCACUGUCAAGAGAAGGUACAUGAGGAUCACCCAUGUAUGAC [Ex4-3: 49] (puzzle: Exclusion 4) |  |  |  | 14.2 | 
AGCCUACAUGAGGAUCACCCAUGUCAGGAUAUCUCGCGACGUGUCGGGAACACGUUGCAGAGAAGGGACUCGGG [Labezadi] (puzzle: Exclusion 1) |  |  |  | 51.8 | 
AGCUGUGGCCAAGGAUAUCCAGCCUUAAAUACCGACGUAUAGUCGGACAUGAGGAUCACCCAUGUGGAGAAGGUGGUCUCAGCA [Eli eng2 - 040] (Eterna round: R96, puzzle: Exclusion NG 2) | 109 | 56.8 | 45 |  | 
AAAUUGGUAGAGGAUAUCGCACAGGAAACACUGCGAGAAGGCUGCACAUGAGGAUCACCCAUGUUCAGUUGCGA [EX6 #38] (Eterna round: R97, puzzle: Exclusion 6) | 16.7 | 14.8 |  |  | 
GGCCUGUGAGGAUAUUAGUAGUAGAUGAAAUAAACUAUUACUGAGAAGGCACAUGAGGAUCACCCAUGUUGGCC [Mat - Exclusion 4 - Eli Mod - D36] (Eterna round: R97, puzzle: Exclusion 4) | 16.6 | 16.1 |  |  | 
UUGUACAUAGGAUAUAGUUGUUUGUACAUGAGGAUCACCCAUGUUAUGUAUCUUUUGCUUCUAGAAGGAUGUUCUU [JR_E5_Sub005] (puzzle: Exclusion 5) |  |  |  | 32.2 | 
UACCAGGUUCAGGAUAUGCCCUCGAAGAGAGGCGCAGAAGGGAACACAUGAGGAUCACCCAUGUCAGCCGCUUC [Eternabot (Original) Solution 45] (Eterna round: R97, puzzle: Exclusion 6) | 26.6 | 17.1 |  |  | 
AAGAAACAUGAGGAUCACCCAUGUGAGGAUAUGACAAAGAAAAGAAAAGAAAGAAGAUUCAGAAGGCACAAAGG [salish99-ex1_r3_036] (puzzle: Exclusion 1) |  |  |  | 53.6 | apparent KD of MS2 coat protein (Eterna round: R95, input ligand: FMN 200 uM): 90.5 nM; apparent KD of MS2 coat protein (Eterna round: R95, input ligand: none): 70.4 nM
CCUAAACAUGAGGAUCACCCAUGUGAGGAUAUGCACACCACAACAUGCGGUUGAGGGUGCAGAAGGCAUAUGAG [Eternabot (L1) Solution 60] (Eterna round: R97, puzzle: Exclusion 1) | 99.2 | 34.2 |  |  | 
